Laboratory results taken from the domain aggregation screens of Martell et al. (2025).

Assay: soluble fraction after stress (log2 fold change); higher = more stays soluble; pooled small domains, quantitative proteomics
Details: stress: 75 degC
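Also: 20 min heating vs room temperature control held 20 min.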

Row | Sequence | soluble fraction (log2)
1 | HMHDLDALTGLSGEARSKVYEEGSVFVAGEMWSAKSDAVIPAGSSIRVVRREGFILVVEKDS | -2.48
2 | HMHDYTTIIGVIELRLNKISYDNVQKRYRIGRSGISLIMERYRDSGLSLDDLKQMPAEKVVNLIYPKD | -2.88
3 | HMHDYYDSIDAVTHDKSYESNLVFALKLGYTETQLQKALLKLGKKAREDQILEELIRIQKSSKA | -0.362
4 | HMHEGNWTLPNPMPIGTTLTLPEHSRLYISNLAGQRVFETSATSVEIPLLPKGTYLLRLETMNGHTTRKIL | -0.106
5 | HMHELKIEKVAEAPNGAMRLLLSDGSEWVLGVKSWNRLNLSLEKILDVNVLRALEKESQYHLLRTKALEL | -1.39
6 | HMHFIMEYRIRAYVDELFESAPRTQRAYELKIELTQNLIDKYYALVSEGKSEQDAYNLTVMSIGDVREL | -3.01
7 | HMHGEAVVVPNVKGLPMRQAENEIYKQSLKAVAIDSSYVKGMPPGAILEQNPAGGSKVKKGRTVYLTINMD | -0.268
8 | HMHGERVVTAGQTVRVVFTSNGLQVSSEGKALAAGAVGDDIQVRAASGKVIRGTVTGPGVVQV | 0.233
9 | HMHGLNQNKPIPIADIVNSVNNYLTSLGKKTITDNSVLSNLKKAAKYLNTAYNLVLRPDSLNMTVTLL | 0.323
10 | HMHIMINPDQLSPEQIQSIRTWAEEGLDLNAIQKRLHEDLNIKLTFMDTRFLLQDLDIRIRQPEPEPEAEQ | -0.208
11 | HMHINLEGLKKIDFRKKIGFLFGSEASGLSNKEVSYANYTLQIPTNINFKSLNLSHSLIIIAQFISSLLNS | -0.55
12 | HMHKIRRQTKITKSLLDQIEGIGSSRKKALLNHFGSAKAVGEAGETDLGTVKGISNSLAKKIYDFFHAT | -0.545
13 | HMHLDIGQLVQRILADIQVGKLADGQRKLPAEPVLMERYQVTRYTLRQALKQLSNMGYTYQMHGIGTFVRQ | -1.79
14 | HMHLKDEHGLTPKQRAFADEYVITLNATVSYKKIYSVKRDSVASTNGSRLLGNANVKAYIDKRLEE | -2.26
15 | HMHLKRQEAINLGAYLLGAELRIHRLSLEELGSERIDEMLAAINYKTLDDLLADIGLGNRPARFVARQLG | -1.86
16 | HMHLLGASIAAYRKKAGMTQEDLGRALFVSGQAVSRWERGGTPDSDMLPKIADVLGISLDTLFGRS | -1.57
17 | HMHLRYTYIYDNENRVTSKEASKWDSTQEAWVPYFKMNVSYVNNEVELSYARWNSKSNAYDSSIKKTI | -2.54
18 | HMHLTNIPKGFTPSFDTKQWIVEEFGERYNYDNELKIFINHYRASGTTKSDWQYAFRSWLLRAKKFT | -2.83
19 | HMHLTRYLHTMIRAANLDDTLDFFVEKLGLIEAYRYSNEAGRFTLVFLSAPDDLESAQSRQAPLVEITYN | -1.32
20 | HMHLYDMYNLTEKEISIIRLIANGLNNKEISQELFLSEGTIKNNITNILAKLELRDRTQLAIFAFKNKIVI | -3.6
21 | HMHMELHEKIRLARELNKWSQEEVAEKLEMSPSGYAKIERGETALNIPRLEQIAEIFNIDIWELVKA | -1.04
22 | HMHMHTADDFKQLAKHTSNGRLRTRYLALYHFKKGETRTQIAAYLGVARGSVNTWVSNYLAYGLEGLQS | -2.53
23 | HMHMIDDYLARIGQLIRDARQHRGWTQVQLAEALGTSQSAVNRIERGNQNISLEMIARIGEALGSEIVSLG | -2.24
24 | HMHMKTIEWDSLVLIMYKDMKYLKRINEGQSFHGKGGMLNYADLIGKTYGIRFGQYEIFEPSLEDIVMYG | -0.0889
25 | HMHMSKKLADSISALRKKNGLSQEQLAEKIGISRQTVSNWERGIATPDVETLNLISKLFDEDLSVMING | -0.073
26 | HMHNISQTGRRIAGMTQERWAEALDISVESVRLYESGRGMPSDDVATRMVEVSGAPVLGYWH | -0.458
27 | HMHNPSYDMSKDVDILVMKFRDYNNLTDDEARFLLDKAKDAYYNTGKEILSDNEYDTLEKSLGQE | -0.000671
28 | HMHPEPDPVLFIDGKEYPYDKLSELDETRVQSMTILPKKSAVKKYGDKYANRSIMEITLKKEN | 0.119
29 | HMHPNPLTEQEIAVLKGIAQGLSNQEIADQLYLSNGTVRNYVTNILSKLDAGNRTEAANIAKESGW | 0.00139
30 | HMHPSNQELTKVLAQGSELVLAQKYIEASQIFTRVIEIDQTWAEAWNKRATVFYLLQNYEASQKDIDEV | 0.0525
